Target: Chicken egg white-derived lysozyme (Sigma-Aldrich) (chicken) (UniProt P00698)
Experiment: SPR, Biacore T200; antigen immobilized, antibody as analyte, as in Example 1

Chain of Chicken egg white-derived lysozyme (Sigma-Aldrich) (chicken) (P00698 19-147): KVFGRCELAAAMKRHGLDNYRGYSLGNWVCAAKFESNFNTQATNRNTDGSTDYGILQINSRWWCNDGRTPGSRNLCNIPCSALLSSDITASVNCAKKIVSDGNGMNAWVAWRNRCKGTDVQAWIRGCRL

Kd: 0.177 nM
Substance: Wild-type mouse anti-lysozyme antibody of clone Hy-HEL5
